Test system: recombinant overlapping peptides (ROP) fusion protein composed of 20 overlapping peptides covering HIV Nef (Lai) interspersed with Factor Xa sites (IEGR)

“protease Factor Xa (New England Biolabs)” was tested, and the “protease digestion, SDS page and mass spectrometry” value was “the ROP protein was cut by Factor Xa into overlapping peptides (ROP peptides) as shown in the mass spectrometry”.

— patent US9382546
